Source: article PMC9935901 (Signal Transduction and Targeted Therapy, 2023)

Biological target: T1, GST-tagged full-length β-catenin (UniProt P35222 1-781)
T1 construct: β-catenin, full length; also called GST-β-catenin
T1 sequence (looked up): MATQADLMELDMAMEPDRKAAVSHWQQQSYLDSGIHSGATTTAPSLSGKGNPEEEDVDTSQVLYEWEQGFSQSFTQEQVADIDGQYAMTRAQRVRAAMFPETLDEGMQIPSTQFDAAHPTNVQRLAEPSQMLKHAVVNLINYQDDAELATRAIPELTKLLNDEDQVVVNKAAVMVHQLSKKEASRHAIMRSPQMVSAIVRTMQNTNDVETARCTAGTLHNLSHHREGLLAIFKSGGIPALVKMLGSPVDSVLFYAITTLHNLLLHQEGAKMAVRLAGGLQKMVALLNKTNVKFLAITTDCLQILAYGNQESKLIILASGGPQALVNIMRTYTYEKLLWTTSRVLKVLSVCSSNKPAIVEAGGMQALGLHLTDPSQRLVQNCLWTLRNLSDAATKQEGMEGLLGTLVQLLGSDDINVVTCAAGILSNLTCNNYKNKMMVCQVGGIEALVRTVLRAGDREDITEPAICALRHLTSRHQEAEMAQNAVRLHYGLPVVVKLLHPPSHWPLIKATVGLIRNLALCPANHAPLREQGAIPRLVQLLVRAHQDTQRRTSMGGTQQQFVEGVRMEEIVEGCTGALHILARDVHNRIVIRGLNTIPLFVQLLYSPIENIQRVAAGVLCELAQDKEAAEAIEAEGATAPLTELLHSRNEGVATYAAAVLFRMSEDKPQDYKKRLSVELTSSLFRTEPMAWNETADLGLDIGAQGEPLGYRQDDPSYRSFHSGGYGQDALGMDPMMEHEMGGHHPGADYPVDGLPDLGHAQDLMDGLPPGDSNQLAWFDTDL
Assay: pull-down; purified GST-tagged full-length β-catenin incubated with purified His-tagged FAM83A, pulled down by GST beads, western blotting
Settings: both partners purified

binding result: binds
B1: His-tagged FAM83A (natural protein, UniProt Q86UY5 1-434, looked up)
chain: MSRSRHLGKIRKRLEDVKSQWVRPARADFSDNESARLATDALLDGGSEAYWRVLSQEGEVDFLSSVEAQYIQAQAREPPCPPDTLGGAEAGPKGLDSSSLQSGTYFPVASEGSEPALLHSWASAEKPYLKEKSSATVYFQTVKHNNIRDLVRRCITRTSQVLVILMDVFTDVEIFCDILEAANKRGVFVCVLLDQGGVKLFQEMCDKVQISDSHLKNISIRSVEGEIYCAKSGRKFAGQIREKFIISDWRFVLSGSYSFTWLCGHVHRNILSKFTGQAVELFDEEFRHLYASSKPVMGLKSPRLVAPVPPGAAPANGRLSSSSGSASDRTSSNPFSGRSAGSHPGTRSVSASSGPCSPAAPHPPPPPRFQPHQGPWGAPSPQAHLSPRPHDGPPAAVYSNLGAYRPTRLQLEQLGLVPRLTPTWRPFLQASPHF
notes: FAM83A; also called His-FAM83A
